The target of the test is GST-βPIX (UniProt Q14155). The experiment in a line: pull-down.

Data on 1 substance can be found in PMC2808764.

In turn, “His-tagged MYO18A-CB (His-MYO18A-CB) (domain or fragment)” had a fold amount pulled down, against GST-GIT1 of 2 fold.
